How the values were obtained:
Experiment in all cases: competition with 125I probe peptide, purified HLA
HLA DRB1*0101 (human) = target: HLA DRB1*0101 (human)
HLA DRB1*0301 (human) = target: HLA DRB1*0301 (human)
HLA DRB1*0401 (human) = target: HLA DRB1*0401 (human)
HLA DRB1*0404 (human) = target: HLA DRB1*0404 (human)
HLA DRB1*0405 (human) = target: HLA DRB1*0405 (human)
HLA DRB1*0701 (human) = target: HLA DRB1*0701 (human)
HLA DRB1*0802 (human) = target: HLA DRB1*0802 (human)
HLA DRB1*0901 (human) = target: HLA DRB1*0901 (human)
HLA DRB1*1101 (human) = target: HLA DRB1*1101 (human)
HLA DRB1*1201 (human) = target: HLA DRB1*1201 (human)
HLA DRB1*1302 (human) = target: HLA DRB1*1302 (human)
HLA DRB1*1501 (human) = target: HLA DRB1*1501 (human)
HLA DRB3*0101 (human) = target: HLA DRB3*0101 (human)
HLA DRB4*0101 (human) = target: HLA DRB4*0101 (human)
HLA DRB5*0101 (human) = target: HLA DRB5*0101 (human)

## TGRCIACWRRPRTET (modifications not checked) [HPV31.E6.132 HTL epitope]
HLA DRB1*0101 (human)
  IC50: 3.17 µM
HLA DRB1*0301 (human)
  IC50: 1.03 µM
HLA DRB1*0401 (human)
  IC50: 0.758 µM
HLA DRB1*0404 (human)
  IC50: 1.15 µM
HLA DRB1*0405 (human)
  IC50: 0.733 µM
HLA DRB1*0701 (human)
  IC50: 11.5 µM
HLA DRB1*0802 (human)
  IC50: 0.512 µM
HLA DRB1*0901 (human)
  IC50: 13.6 µM
HLA DRB1*1101 (human)
  IC50: 0.158 µM
HLA DRB1*1201 (human)
  IC50: 4.95 µM
HLA DRB1*1302 (human)
  IC50: 2.77 µM
HLA DRB1*1501 (human)
  IC50: 0.084 µM
HLA DRB3*0101 (human)
  IC50: 5.96 µM
HLA DRB4*0101 (human)
  IC50: 0.225 µM
HLA DRB5*0101 (human)
  IC50: 6.05 µM

From patent publication US20100272750A1
